Test results as given in article PMC8897273 (Journal of molecular biology, 2022).

Biological target: PABP1;eIF4G1 (88-653) (Homo sapiens;Homo sapiens, UniProt P11940;Q04637 1-636;88-653, |)
Test: EMSA

Sequence of PABP1;eIF4G1 (88-653) (P11940 whole entry, chain 1 of 2): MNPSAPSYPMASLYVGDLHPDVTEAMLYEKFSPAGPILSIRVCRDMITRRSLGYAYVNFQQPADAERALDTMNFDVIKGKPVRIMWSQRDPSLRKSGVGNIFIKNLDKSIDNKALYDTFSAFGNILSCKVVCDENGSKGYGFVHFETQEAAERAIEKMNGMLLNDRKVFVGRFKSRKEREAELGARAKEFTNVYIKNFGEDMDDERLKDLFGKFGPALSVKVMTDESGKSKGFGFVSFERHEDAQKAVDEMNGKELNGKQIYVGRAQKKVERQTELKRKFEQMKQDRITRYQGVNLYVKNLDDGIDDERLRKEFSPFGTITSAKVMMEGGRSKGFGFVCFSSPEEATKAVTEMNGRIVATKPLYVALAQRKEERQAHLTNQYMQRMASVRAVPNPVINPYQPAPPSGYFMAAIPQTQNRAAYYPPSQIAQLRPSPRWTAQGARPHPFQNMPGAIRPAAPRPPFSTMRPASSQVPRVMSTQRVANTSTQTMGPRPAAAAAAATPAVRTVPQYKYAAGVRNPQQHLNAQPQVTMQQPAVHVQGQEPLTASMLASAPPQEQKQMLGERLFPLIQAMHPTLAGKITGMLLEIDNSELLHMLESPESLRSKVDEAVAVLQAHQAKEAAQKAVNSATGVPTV
Sequence of PABP1;eIF4G1 (88-653) (Q04637 88-653, chain 2 of 2): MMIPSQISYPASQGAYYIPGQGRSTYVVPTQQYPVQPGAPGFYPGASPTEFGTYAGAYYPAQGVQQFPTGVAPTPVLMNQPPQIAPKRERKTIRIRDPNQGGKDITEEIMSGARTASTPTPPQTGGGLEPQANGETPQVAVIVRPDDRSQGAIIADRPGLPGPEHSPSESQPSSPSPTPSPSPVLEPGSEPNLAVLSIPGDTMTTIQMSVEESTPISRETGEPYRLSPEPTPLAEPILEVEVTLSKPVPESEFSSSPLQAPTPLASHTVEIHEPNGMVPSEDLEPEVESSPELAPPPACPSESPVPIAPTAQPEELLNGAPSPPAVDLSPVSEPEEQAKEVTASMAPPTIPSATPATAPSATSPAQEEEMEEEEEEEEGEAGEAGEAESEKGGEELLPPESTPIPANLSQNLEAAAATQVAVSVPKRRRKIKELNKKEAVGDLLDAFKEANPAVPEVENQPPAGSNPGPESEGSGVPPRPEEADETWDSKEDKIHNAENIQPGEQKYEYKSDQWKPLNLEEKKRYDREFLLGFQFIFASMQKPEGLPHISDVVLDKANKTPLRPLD

Binder: AAAAAAAAAAAAAAAAAA (ssRNA) [Poly(A)18]
- binding result: binds
